Results published in paper PMC6288126, “Structural insights into DDA1 function as a core component of the CRL4-DDB1 ubiquitin ligase” (Cell Discovery, 2018).

Biological target: T1, DDB1 (DNA damage-binding protein 1) (human, UniProt Q16531 1-1140)
T1 construct: triple beta-propeller (BPA, BPB, BPC) and CTD; also called free DDB1; purified DDB1; source: purified recombinant protein
Assay: BLI; affinity-tagged DDA1 FL and fragments immobilised on the probe as ligand, free DDB1 as analyte at different concentrations; Kd from the dose response curve of maximal binding signals
Conditions: both partners purified

T1 sequence (Q16531 whole entry): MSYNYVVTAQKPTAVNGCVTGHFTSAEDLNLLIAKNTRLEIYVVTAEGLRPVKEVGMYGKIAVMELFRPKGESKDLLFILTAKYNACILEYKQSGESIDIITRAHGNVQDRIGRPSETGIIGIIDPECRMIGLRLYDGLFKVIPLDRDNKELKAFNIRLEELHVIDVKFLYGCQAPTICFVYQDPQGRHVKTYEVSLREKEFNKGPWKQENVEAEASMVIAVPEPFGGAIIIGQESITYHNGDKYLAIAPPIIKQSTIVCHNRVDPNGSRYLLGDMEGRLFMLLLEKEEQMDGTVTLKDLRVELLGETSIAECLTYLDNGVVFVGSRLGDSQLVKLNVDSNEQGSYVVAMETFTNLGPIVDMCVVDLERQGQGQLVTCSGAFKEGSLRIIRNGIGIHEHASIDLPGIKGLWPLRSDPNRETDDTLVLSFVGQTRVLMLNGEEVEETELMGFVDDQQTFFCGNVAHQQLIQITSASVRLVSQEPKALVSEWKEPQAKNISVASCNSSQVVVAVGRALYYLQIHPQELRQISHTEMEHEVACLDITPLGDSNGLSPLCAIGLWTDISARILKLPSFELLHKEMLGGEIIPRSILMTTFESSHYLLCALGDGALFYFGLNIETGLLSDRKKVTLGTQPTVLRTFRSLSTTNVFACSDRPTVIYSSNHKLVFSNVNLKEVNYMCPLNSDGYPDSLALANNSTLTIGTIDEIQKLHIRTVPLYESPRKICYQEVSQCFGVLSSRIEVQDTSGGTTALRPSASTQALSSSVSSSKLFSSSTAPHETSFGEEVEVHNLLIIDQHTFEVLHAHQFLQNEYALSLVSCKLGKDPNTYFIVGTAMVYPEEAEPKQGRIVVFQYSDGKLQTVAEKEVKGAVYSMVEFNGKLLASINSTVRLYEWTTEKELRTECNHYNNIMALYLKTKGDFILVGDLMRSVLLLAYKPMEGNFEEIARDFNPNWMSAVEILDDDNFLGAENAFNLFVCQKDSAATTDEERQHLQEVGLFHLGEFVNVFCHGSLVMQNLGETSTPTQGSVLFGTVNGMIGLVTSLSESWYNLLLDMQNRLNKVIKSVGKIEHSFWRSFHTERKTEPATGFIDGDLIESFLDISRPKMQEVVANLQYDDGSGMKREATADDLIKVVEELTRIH

B1: Affinity-tagged DDA1-NT (1-28 aa) (bio-layer interferometry) (domain or fragment)
chain: not shown
notes: DDA1, N-terminal fragment DDA1-NT (1-28 aa); it may be the GST fusion of m3; source: purified recombinant protein
  Kd: ~45 nM
